One experiment addresses T1, Stu2-WT-Flag (S. cerevisiae, UniProt P46675 1-888).
T1 sequence (looked up): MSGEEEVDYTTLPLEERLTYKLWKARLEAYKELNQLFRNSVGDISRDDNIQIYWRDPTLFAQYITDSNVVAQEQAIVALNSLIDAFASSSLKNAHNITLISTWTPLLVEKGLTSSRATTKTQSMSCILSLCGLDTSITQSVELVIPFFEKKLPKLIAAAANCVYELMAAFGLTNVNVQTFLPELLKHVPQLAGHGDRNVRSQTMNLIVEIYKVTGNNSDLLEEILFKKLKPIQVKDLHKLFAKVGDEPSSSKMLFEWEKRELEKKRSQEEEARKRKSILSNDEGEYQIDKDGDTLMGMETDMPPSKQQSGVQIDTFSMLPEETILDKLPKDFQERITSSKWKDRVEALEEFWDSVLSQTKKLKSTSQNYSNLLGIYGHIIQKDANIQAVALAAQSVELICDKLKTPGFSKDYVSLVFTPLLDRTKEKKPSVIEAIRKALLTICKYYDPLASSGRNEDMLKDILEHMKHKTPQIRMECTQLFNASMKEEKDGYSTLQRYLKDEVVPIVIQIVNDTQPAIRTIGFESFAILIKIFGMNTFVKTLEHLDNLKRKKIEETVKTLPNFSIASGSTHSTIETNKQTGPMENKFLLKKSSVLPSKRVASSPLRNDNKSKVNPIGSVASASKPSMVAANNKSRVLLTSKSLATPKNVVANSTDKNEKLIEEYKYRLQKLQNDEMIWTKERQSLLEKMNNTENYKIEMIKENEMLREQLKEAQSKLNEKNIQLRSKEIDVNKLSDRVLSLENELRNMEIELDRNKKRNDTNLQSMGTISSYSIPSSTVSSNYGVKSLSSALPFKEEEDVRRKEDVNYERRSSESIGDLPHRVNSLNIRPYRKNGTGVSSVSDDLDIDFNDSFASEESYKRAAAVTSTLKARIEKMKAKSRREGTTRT
Put plainly: SEC.

Another experiment deals with T2, Stu2-2D-Flag (S. cerevisiae, UniProt P46675 1-888, S813D | S815D).
T2 sequence (looked up): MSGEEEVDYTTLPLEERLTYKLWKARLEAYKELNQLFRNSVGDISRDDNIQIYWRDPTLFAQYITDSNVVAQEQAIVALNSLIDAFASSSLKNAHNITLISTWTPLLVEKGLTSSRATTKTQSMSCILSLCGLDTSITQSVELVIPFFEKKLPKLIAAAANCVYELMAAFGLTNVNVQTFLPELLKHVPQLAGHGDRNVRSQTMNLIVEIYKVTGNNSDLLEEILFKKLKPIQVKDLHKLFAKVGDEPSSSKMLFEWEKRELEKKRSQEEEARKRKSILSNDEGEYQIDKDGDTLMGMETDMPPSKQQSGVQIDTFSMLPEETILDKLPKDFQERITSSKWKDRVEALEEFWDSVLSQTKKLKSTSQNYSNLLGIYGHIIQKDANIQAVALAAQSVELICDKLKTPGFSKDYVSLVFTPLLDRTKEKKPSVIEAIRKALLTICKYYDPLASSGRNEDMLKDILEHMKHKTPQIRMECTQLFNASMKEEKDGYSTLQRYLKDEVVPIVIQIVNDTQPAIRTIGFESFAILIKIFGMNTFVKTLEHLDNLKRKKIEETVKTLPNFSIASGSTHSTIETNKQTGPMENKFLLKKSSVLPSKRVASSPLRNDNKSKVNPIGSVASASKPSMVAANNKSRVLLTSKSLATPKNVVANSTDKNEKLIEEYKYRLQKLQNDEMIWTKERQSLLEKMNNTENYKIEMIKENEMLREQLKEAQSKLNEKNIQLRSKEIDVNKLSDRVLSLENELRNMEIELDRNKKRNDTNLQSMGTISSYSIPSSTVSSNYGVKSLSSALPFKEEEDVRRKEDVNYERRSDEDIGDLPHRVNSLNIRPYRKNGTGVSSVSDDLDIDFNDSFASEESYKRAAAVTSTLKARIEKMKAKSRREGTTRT
Nature of the experiment: SEC.

B1: Bik1 (recombinant, from StrepII-TEV-Bik1) (natural protein, S. cerevisiae, UniProt P11709 1-440, looked up)
chain: MDRYQRKIGCFIQIPNLGRGQLKYVGPVDTKAGMFAGVDLLANIGKNDGSFMGKKYFQTEYPQSGLFIQLQKVASLIEKASISQTSRRTTMEPLSIPKNRSIVRLTNQFSPMDDPKSPTPMRSFRITSRHSGNQQSMDQEASDHHQQQEFGYDNREDRMEVDSILSSDRKANHNTTSDWKPDNGHMNDLNSSEVTIELREAQLTIEKLQRKQLHYKRLLDDQRMVLEEVQPTFDRYEATIQEREKEIDHLKQQLELERRQQAKQKQFFDAENEQLLAVVSQLHEEIKENEERNLSHNQPTGANEDVELLKKQLEQLRNIEDQFELHKTKWAKEREQLKMHNDSLSKEYQNLSKELFLTKPQDSSSEEVASLTKKLEEANEKIKQLEQAQAQTAVESLPIFDPPAPVDTTAGRQQWCEHCDTMGHNTAECPHHNPDNQQFF
As to B1, the binding result with Stu2-WT-Flag and with Stu2-2D-Flag was “binds” each time.
